Source: publication PMC12780147

Assays:
[1] = target: TGF-β1 (not stated (human TGF-β1 stated for the reporter assay only)); assay: BLI
CD127 (IL-7Rα) = CD127 (IL-7Rα) (UniProt P16871); assay: BLI
Sequence of CD127 (IL-7Rα) (P16871 21-459): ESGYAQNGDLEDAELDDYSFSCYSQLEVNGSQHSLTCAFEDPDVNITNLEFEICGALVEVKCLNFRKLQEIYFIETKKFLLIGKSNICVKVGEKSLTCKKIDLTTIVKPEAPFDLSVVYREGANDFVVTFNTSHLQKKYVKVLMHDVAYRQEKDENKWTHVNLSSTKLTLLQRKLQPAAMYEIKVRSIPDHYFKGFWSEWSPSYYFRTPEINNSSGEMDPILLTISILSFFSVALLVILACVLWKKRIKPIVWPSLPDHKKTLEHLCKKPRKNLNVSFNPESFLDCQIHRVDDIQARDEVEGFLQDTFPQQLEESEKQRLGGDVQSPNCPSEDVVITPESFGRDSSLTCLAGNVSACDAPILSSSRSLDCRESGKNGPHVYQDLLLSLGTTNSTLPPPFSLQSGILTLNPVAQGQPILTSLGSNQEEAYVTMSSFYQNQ

Kd [1]: 0.145 nM
Kd (CD127 (IL-7Rα)): 6.91 nM
Substance: rhIL-7-hyFc-sTBRII (IL7-TBRII), bifunctional fusion protein (from UniProt P13232 26-177; P37173 23-166) (Fc fusion)
